The values below are quoted from earlier work in paper PMC12583094, “A novel antioxidant peptide from black soybean [Glycine max (L.) Merr.] with verified MPO interaction and multi-scale antioxidant activity” (Frontiers in Nutrition, 2025).

The series deals with MPO (Homo sapiens) (UniProt P05164). Description: SPR. Background: SPR reads the build-up and loss of mass on a sensor chip optically.
Chain of MPO (Homo sapiens) (P05164 165-273, chain 1 of 2): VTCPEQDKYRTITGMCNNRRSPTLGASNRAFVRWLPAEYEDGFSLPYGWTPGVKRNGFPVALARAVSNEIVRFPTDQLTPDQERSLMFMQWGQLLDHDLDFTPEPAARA
Chain of MPO (Homo sapiens) (P05164 279-745, chain 2 of 2): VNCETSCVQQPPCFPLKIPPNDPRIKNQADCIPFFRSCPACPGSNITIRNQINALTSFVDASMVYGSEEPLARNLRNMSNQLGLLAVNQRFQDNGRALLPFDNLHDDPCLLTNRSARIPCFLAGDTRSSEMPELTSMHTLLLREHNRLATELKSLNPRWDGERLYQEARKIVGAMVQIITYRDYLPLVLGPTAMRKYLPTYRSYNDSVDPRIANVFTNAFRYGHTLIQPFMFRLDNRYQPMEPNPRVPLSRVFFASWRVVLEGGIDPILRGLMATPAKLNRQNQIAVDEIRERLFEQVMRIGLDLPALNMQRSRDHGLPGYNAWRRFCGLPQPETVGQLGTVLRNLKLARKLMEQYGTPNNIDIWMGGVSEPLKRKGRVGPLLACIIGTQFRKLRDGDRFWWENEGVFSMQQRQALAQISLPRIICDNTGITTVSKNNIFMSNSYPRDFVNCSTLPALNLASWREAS

What is called Kd is a measure of binding affinity in units of concentration. With SPIN (from UniProt A0A0H3K703), the Kd was 10 nM.
